Data on nine sequences can be found in the DeepSol protein solubility set.

This data set in a line: soluble on expression in E. coli; label from the status in PepcDB or PDB records.
Regarding “MALDNRHRLIVGKLAEAFGLPENVIEKTLTQDKQAVNSFFTPAGPPSLVFVYQVKEDKLKDGSVGPVDNKPTLHRIGPHERIHNKGVYFTRLNPKGINEKTLEADMGSGELSGGALENFKAIVSDLYLPIMQEQQQWGKMSTEYLEDFLSSTAKFGSMLTEAVATVSGGVELRMPDPRYIDQYGDLRPAGITQAAGDDDTLQEMEECLTEWCREAELLLNQTNKIKDGEEPGPDTELEYWRTRMSNFNSITEHLKTKECKLVLGICSHAKTKAYLRWRALDVQITDAANESKDNVKYLATLEKSMEPMYQGRVTDITESLPALMTNVRMMYTIARFYSTAEHMTRLFTKITNQLVRRCKEQIMENGKIWDQDKVTLIGNMKVSVELANVYRQQYRLAKETLAAQPKSKQFDFDEQAIFLKFDLFSKRLHKLIDMFTTIHQFSSLEQHTHIEGLDTMLKSLNNIIDDVKRKPYDLLDYSRNAFDRDFLEFNVQINDLELQLQGFVNASFEHITSTEHALSLLAQFQAIMQRETLQQDLENKYMVIFQNYAKDLDAVQKLYEKNKYEPPVPRNAPPVAGNIMWARQLLRRIEAPMQRFAQNKNLLAAKESKKIIKTYNKVAKALIEFETLWHQAWIKSIEQCKAGLAAPLLVQHPDTGKILVNFDKEIMQLVREAKYMQRFNIAVPESAQMVLLQEEKFKFYHNQLTHLVREYEHVLGRVAPTIKPLLRPHLDDMERKIAPGFAVLTWTSLNIDGYLHRFKQGLARLEELVRKVVDLTENRVDSNLGAISSTLLVELPTDRSFTYEEFVSTQNRFQKKQAELLAIRNEEVRRAIEDLLTLVRNYPRENTEDVLDEKEVSLFVRHYSKNMYNAIMQCTLNSLQAMKRRLGSKTTTGIFFMERPFFDVDVELKVPSVCMNPTLEEIQAAINQCAKKVLTISKQLPAWGMDNVATYHEMIAGDKEVVKAVLRLTGSVEGIKTQVGEYIRTFDKYDFLWKEDLQAAYDHFMRSNPTLEAFEAELKKYMAIETEVTMINGVNNIGALSLETMPLKNSLKAEAVSWKTQFAQNLHKQCSDDLKAFDNYIRDTNSKFHRKIEDLEDVRNVMAVLKEVREKESEIDNLIGPIEEMYGLLMRYEVRVPKEETTMVSDLRYGWKKLKKVATEVSDNLTRLQVGFKRELIKEVKTFVVDAQMFRKDWEANGPMVPGLDPQEAVDRLRKFQQMFEVRKRKWENYSSGEELFGLPVTQYPELEQTEKEIQMLDRLYSLYVAVITTIKGYGDYFWVDVVEKIDEMGEQVQQYQNQSKKLPKALRDWPAYNACRKTIDDFLEMLPLFQALTHKSMRERHWKEVMRVTGHELNLAEDHFKLQHLLDCNVLRYREDIEDLTGAAVKEEIIEVKLNQLKADWATANLAFAEYKNRGPVILKPSDTSELMEKLEESQMTLGSMATNRYSAPFRDEVQAWSIKLSTVSEIIEQWLMVQSMWQYMEAVF”, the “soluble on expression in E. coli” value is listed as “not soluble”.
To “MALIRATLPVVEPGRTEIHLPHWDGIEQQHGFIHGGVVGMIADSAAGYAAMTLVPAEASVLTVEYKMNLMAPAEGERLIARGEVVRAGRTLIVTRAEVLALRDGAERLCALMQQTIMVMHARPEKLDAPPAALEHHHHHH” belongs “not soluble”; to “MALIVQKFGGTSVGTVERIQAVAQRIKRTVQGGNSLVVVVSAMGKSTDVLVDLAQQISPNPCRREMDMLLSTGEQVSIALLSLALQEIDQPAISLTGAQVGIVTEAEHSRARILEIRPDRLEHHLREGKVVVVAGFQGISSVEHLEITTLGRGGSDTSAVALAAALKADFCEIYTDVPGILTTDPRLVPEAQLMAEITCDEMLELASLGAKVLHPRAVEIARNYGIPLVVRSSWSDEPGTKVVAPPVQNRSLVGLEIAKAVDGVEYDADQAKVALLRVPDRPGVASKLFRDIAQQQVDIDLIIQSIHDGNSNDIAFTVVKDLLNTAEAVTSAIAPALRSYPEADQEAEIIVEKGIAKIAIAGAGMIGRPGIAAKMFKTLADVGVNIEMISTSEVKVSCVIDQRDADRAIAALSNAFGVTLSPPKNQTDTSHLPAVRGVALDQDQAQIAIRHVPDRPGMAAQLFTALAEANISVDMIIQSQRCRINQGTPCRDIAFMVAEGDSSQAEAILQPLIKDWLDAAIVVNKAIAKVSIVGSGMIGHPGVAAHFFAALAQENINIEMIATSEIKISCVVPQDRGVDALKAAHSAFNLAGTKTVTVPA”, “soluble”; to “MALLILFFLLGLSFSLEVFSEKLEIKENEIIAEGDAEAYYKNYYIKAKKIKLLRDKDEVYAYEDVYIKNLKTGFEIRGSFAYVNMKKNKGYFLNAKGKFREFNFEAKKIEQLDKERFKVYEATVTTCPLDDKELYLCIFRANITKERALIFHNRLKFFKVPIFYLPVYLIPLGGRKTGFLMPTIGSSTYSSFIYIQPFFWAISRDKDMTITADYRKDQMKGLSLEYRQAFDEESDLITQFSLYKEDKKKGDWWKGREMYRENRFRIFMKYRKKPFKIGVEELSDPYYYEDISFKQEEITKPYTKTYLIYEKETKNYLFYFQTVRYRDLTEEKNNAVNLLPEASFHLKPFYYKGFNFSLDSSFTNFYRNYDGSFMRISLEPTVGKYFELFKVSNYSSLTLINRYYPDSEEDKIVSTFRFRHSVPQYFSLSYGGFKFKNFLEGLYTFSPKDYEVQIFDYQDELNEENNFQFTLVGNLYKNRKLMDYFLNTGYNLLGSYTFPTDGKKIDKKLLPLYYNVSVYPVENVRFWQDAVYDFNLGVFARNVIGTDISWKNFSVGISNSVYKNSEKKVTTDQIALNLKYSGDKFFSGISLNYDRLVDKETYRNVYVGVKGKCWSLVLDYKRNYYRNRDEYVDQVFLRFNLFFKEEIEIPLRR”, “not soluble”.
The entry for “MALNLKQRLEQKFEEEIRFFKGMVSQPKKVGAIVPTSSITAKKMASVINPHSGLPVLELGPGTGVITKAILARGIKPESLTAIEYSTDFYNQLLRSYPGVNFVNGDAFDLDATLGEHKGQMFDSVISAVPMLNFPMAARIKLLDELLKRVPHGRPVVQISYGPISPIVAQPHLYHIRHFDFIVRNIPPAQLWTYTRALEHHHHHH” is “not soluble”; for “MALQNISQNDFALHVQKAEQKSFMQTLEMAKLLSKRGFTLNYIAWLENGTIEISAILYSMPMTGGRYFEINCGPVVTRDKHLTDFYRELKDYVKEKGALELVIKPYDTYQTFDGDGQATSAEKKELISQLTNLGYHFDGLQRDYPNGEPDWHYVKDLSDISEQTLLKSFSKKGRPLVKKAKTFGTKLRRLNRDELNLFKEITSATSDRREYSDKSLDYYQDFYDSFGNNAEFMIASLNFENYLSHLQRDQNKLGNKIAKLQADLEKNPHSEKKQNQLRELSSQFDTFTTRQEEAQKFITKYGKKDVILAGSLFVYTPQEAVYLFSGSYPEFNKFYAPALLQEHVMLEALKRGISFYNLLGITGHFDNSDGVLRFKQNFNGYIVRKMGTFHYYPNPLKYRLLNTIKKILRR” it is “not soluble”; for “MALRLAVSSALRPALNSQVRNASSAVSVKDVLASAPQAEVTTLKNGFRVVTEDNGSATATVGVWIETGSRFENEKNNGVAHFLERLIHKGTGKRASAALESELNAIGAKLNSFTERDQTAVFVQAGAQDVEKVVDILADVLRNSKLEASTIDTERVNLLKELEASDDYHQLVLFDMLHAAGFQGTPLALSVLGTSESIPNISAQQLKEWQEDHYRPVRMVLSAVGGGVSNVSSLADKYFGDLSNEYPRKVPQVDGTRFTGSEYRYRNDNVPHMYAAFAVEGVGYAHKDALALQIANQFIGQWDVTHATSRTAASRLVQKIGHDHGVHNLQHFNINYKDTGLFGIYFVADAHDLNDTSGIMKSVAHEWKHLASAATEEEVAMAKNQFRTNLYQNLETNTQKAGFNAKELLYTGNLRQLSELEAQIQKVDAGAVREAISRHVYDRDLAAVGVGRTEAFPNYALTRAGMSWWRM” it is “not soluble”.
To “MALTTRRRALTTLGAALTGAVALPAGTALASQGGHGPRPLWRAHAHNDYEHPRPLLDALDHRFGSVEADIYLVGGQLLVAHDPEDLDPSRTLESLYLDPLAARVRAHHGRVYRRDRGSLQLLIDIKTEGEATYLELDRRLRRYKNLFTSYAHGRVFPGAVTAVVSGDRAARAPMAAQRSRRAFYDGRLTDLGTVAPASFVPLISDNWTLNFTWQGVGTFPAAERRRLRDIVGAAHARGQRVRFWATPDVAGPARDAVWAELLAAGVDHLNTDDLAGIEAFLDAHRDALEHHHHHH” belongs “soluble”.
For the sequence “MALVPVYCLCRQPYNVNHFMIECGLCQDWFHGSCVGIEEENAVDIDIYHCPDCEAVFGPSIMKNWH”, the “soluble on expression in E. coli” value is listed as “soluble”.
